Experimental data as given in patent US20230407373A1 (priority 2020, published 2023).
Where two headings read alike, the source gives them in different places.

B1: HNRNPUL1: host protein, UniProt Q9BU32 (protein, UniProt Q9BUJ2 1-856, looked up)
Heterogeneous nuclear …: MDVRRLKVNELREELQRRGLDTRGLKAELAERLQAALEAEEPDDERELDADDEPGRPGHINEEVETEGGSELEGTAQPPPPGLQPHAEPGGYSGPDGHYAMDNITRQNQFYDTQVIKQENESGYERRPLEMEQQQAYRPEMKTEMKQGAPTSFLPPEASQLKPDRQQFQSRKRPYEENRGRGYFEHREDRRGRSPQPPAEEDEDDFDDTLVAIDTYNCDLHFKVARDRSSGYPLTIEGFAYLWSGARASYGVRRGRVCFEMKINEEISVKHLPSTEPDPHVVRIGWSLDSCSTQLGEEPFSYGYGGTGKKSTNSRFENYGDKFAENDVIGCFADFECGNDVELSFTKNGKWMGIAFRIQKEALGGQALYPHVLVKNCAVEFNFGQRAEPYCSVLPGFTFIQHLPLSERIRGTVGPKSKAECEILMMVGLPAAGKTTWAIKHAASNPSKKYNILGTNAIMDKMRVMGLRRQRNYAGRWDVLIQQATQCLNRLIQIAARKKRNYILDQTNVYGSAQRRKMRPFEGFQRKAIVICPTDEDLKDRTIKRTDEEGKDVPDHAVLEMKANFTLPDVGDFLDEVLFIELQREEADKLVRQYNEEGRKAGPPPEKRFDNRGGGGFRGRGGGGGFQRYENRGPPGGNRGGFQNRGGGSGGGGNYRGGFNRSGGGGYSQNRWGNNNRDNNNSNNRGSYNRAPQQQPPPQQPPPPQPPPQQPPPPPSYSPARNPPGASTYNKNSNIPGSSANTSTPTVSSYSPPQPSYSQPPYNQGGYSQGYTAPPPPPPPPPAYNYGSYGGYNPAPYTPPPPPTAQTYPQPSYNQYQQYAQQWNQYYQNQGQWPPYYGNYDYGSYSGNTQGGTSTQ
B2: HNRNPR (protein, UniProt O43390 2-633, looked up)
Heterogeneous nuclear …: ANQVNGNAVQLKEEEEPMDTSSVTHTEHYKTLIEAGLPQKVAERLDEIFQTGLVAYVDLDERAIDALREFNEEGALSVLQQFKESDLSHVQNKSAFLCGVMKTYRQREKQGSKVQESTKGPDEAKIKALLERTGYTLDVTTGQRKYGGPPPDSVYSGVQPGIGTEVFVGKIPRDLYEDELVPLFEKAGPIWDLRLMMDPLSGQNRGYAFITFCGKEAAQEAVKLCDSYEIRPGKHLGVCISVANNRLFVGSIPKNKTKENILEEFSKVTEGLVDVILYHQPDDKKKNRGFCFLEYEDHKSAAQARRRLMSGKVKVWGNVVTVEWADPVEEPDPEVMAKVKVLFVRNLATTVTEEILEKSFSEFGKLERVKKLKDYAFVHFEDRGAAVKAMDEMNGKEIEGEEIEIVLAKPPDKKRKERQAARQASRSTAYEDYYYHPPPRMPPPIRGRGRGGGRGGYGYPPDYYGYEDYYDDYYGYDYHDYRGGYEDPYYGYDDGYAVRGRGGGRGGRGAPPPPRGRGAPPPRGRAGYSQRGAPLGPPRGSRGGRGGPAQQQRGRGSRGSRGNRGGNVGGKRKADGYNQPDSKRRQTNNQQNWGSQPIAQQPLQQGGDYSGNYGYNNDNQEFYQDTYGQQWK
B3: G3BP2: host protein of the core SARS-CoV-2 RNA interactome (protein, UniProt Q9UN86 2-482, looked up)
Ras GTPase-activating …: VMEKPSPLLVGREFVRQYYTLLNKAPEYLHRFYGRNSSYVHGGVDASGKPQEAVYGQNDIHHKVLSLNFSECHTKIRHVDAHATLSDGVVVQVMGLLSNSGQPERKFMQTFVLAPEGSVPNKFYVHNDMFRYEDEVFGDSEPELDEESEDEVEEEQEERQPSPEPVQENANSGYYEAHPVTNGIEEPLEESSHEPEPEPESETKTEELKPQVEEKNLEELEEKSTTPPPAEPVSLPQEPPKAFSWASVTSKNLPPSGTVSSSGIPPHVKAPVSQPRVEAKPEVQSQPPRVREQRPRERPGFPPRGPRPGRGDMEQNDSDNRRIIRYPDSHQLFVGNLPHDIDENELKEFFMSFGNVVELRINTKGVGGKLPNFGFVVFDDSEPVQRILIAKPIMFRGEVRLNVEEKKTRAARERETRGGGDDRRDIRRNDRGPGGPRGIVGGGMMRDRDGRGPPPRGGMAQKLGSGRGTGQMEGRFTGQRR
B4: DDX3Y (protein, UniProt O15523 2-660, looked up)
ATP-dependent RNA helicase …: SHVVVKNDPELDQQLANLDLNSEKQSGGASTASKGRYIPPHLRNREASKGFHDKDSSGWSCSKDKDAYSSFGSRDSRGKPGYFSERGSGSRGRFDDRGRSDYDGIGNRERPGFGRFERSGHSRWCDKSVEDDWSKPLPPSERLEQELFSGGNTGINFEKYDDIPVEATGSNCPPHIENFSDIDMGEIIMGNIELTRYTRPTPVQKHAIPIIKGKRDLMACAQTGSGKTAAFLLPILSQIYTDGPGEALKAVKENGRYGRRKQYPISLVLAPTRELAVQIYEEARKFSYRSRVRPCVVYGGADIGQQIRDLERGCHLLVATPGRLVDMMERGKIGLDFCKYLVLDEADRMLDMGFEPQIRRIVEQDTMPPKGVRHTMMFSATFPKEIQMLARDFLDEYIFLAVGRVGSTSENITQKVVWVEDLDKRSFLLDILGATGSDSLTLVFVETKKGADSLEDFLYHEGYACTSIHGDRSQRDREEALHQFRSGKSPILVATAVAARGLDISNVRHVINFDLPSDIEEYVHRIGRTGRVGNLGLATSFFNEKNMNITKDLLDLLVEAKQEVPSWLENMAYEHHYKGGSRGRSKSNRFSGGFGARDYRQSSGSSSSGFGASRGSSSRSGGGGYGNSRGFGGGGYGGFYNSDGYGGNYNSQGVDWWGN
B5: SRSF5: host protein, UniProt Q13243 (protein, UniProt Q13243 1-272, looked up)
Serine/arginine-rich splicing …: MSGCRVFIGRLNPAAREKDVERFFKGYGRIRDIDLKRGFGFVEFEDPRDADDAVYELDGKELCSERVTIEHARARSRGGRGRGRYSDRFSSRRPRNDRRNAPPVRTENRLIVENLSSRVSWQDLKDFMRQAGEVTFADAHRPKLNEGVVEFASYGDLKNAIEKLSGKEINGRKIKLIEGSKRHSRSRSRSRSRTRSSSRSRSRSRSRSRKSYSRSRSRSRSRSRSKSRSVSRSPVPEKSQKRGSSSRSKSPASVDRQRSRSRSRSRSVDSGN
B6: HNRNPD (protein, UniProt Q14103 2-355, looked up)
Heterogeneous nuclear …: SEEQFGGDGAAAAATAAVGGSAGEQEGAMVAATQGAAAAAGSGAGTGGGTASGGTEGGSAESEGAKIDASKNEEDEGHSNSSPRHSEAATAQREEWKMFIGGLSWDTTKKDLKDYFSKFGEVVDCTLKLDPITGRSRGFGFVLFKESESVDKVMDQKEHKLNGKVIDPKRAKAMKTKEPVKKIFVGGLSPDTPEEKIREYFGGFGEVESIELPMDNKTNKRRGFCFITFKEEEPVKKIMEKKYHNVGLSKCEIKVAMSKEQYQQQQQWGSRGGFAGRARGRGGGPSQNWNQGYSNYWNQGYGNYGYNSQGYGGYGGYDYTGYNNYYGYGDYSNQQSGYGKVSRRGGHQNSYKPY
B7: SRSF2 (protein, UniProt Q01130 2-221, looked up)
Serine/arginine-rich splicing …: SYGRPPPDVEGMTSLKVDNLTYRTSPDTLRRVFEKYGRVGDVYIPRDRYTKESRGFAFVRFHDKRDAEDAMDAMDGAVLDGRELRVQMARYGRPPDSHHSRRGPPPRRYGGGGYGRRSRSPRRRRRSRSRSRSRSRSRSRSRYSRSKSRSRTRSRSRSTSKSRSARRSKSKSSSVSRSRSRSRSRSRSRSPPPVSKRESKSRSRSKSPPKSPEEEGAVSS
B8: RBMS1 (protein, UniProt P29558 1-406, looked up)
RNA-binding motif, …: MGKVWKQQMYPQYATYYYPQYLQAKQSLVPAHPMAPPSPSTTSSNNNSSSSSNSGWDQLSKTNLYIRGLPPHTTDQDLVKLCQPYGKIVSTKAILDKTTNKCKGYGFVDFDSPAAAQKAVSALKASGVQAQMAKQQEQDPTNLYISNLPLSMDEQELENMLKPFGQVISTRILRDSSGTSRGVGFARMESTEKCEAVIGHFNGKFIKTPPGVSAPTEPLLCKFADGGQKKRQNPNKYIPNGRPWHREGEVRLAGMTLTYDPTTAAIQNGFYPSPYSIATNRMITQTSITPYIASPVSAYQVQSPSWMQPQPYILQHPGAVLTPSMEHTMSLQPASMISPLAQQMSHLSLGSTGTYMPATSAMQGAYLPQYAHMQTTAVPVEEASGQQQVAVETSNDHSPYTFQPNK

Assays:
Type in all cases: binding
HCoV-OC43 gRNA and sgRNA = settings: for target (unweighted spectral count): OC43 Probe II, infected cells; for target (unweighted spectral count) / target (unweighted spectral count, OC43 Probe II capture): tested against no-probe control; for target (unweighted spectral count, OC43 Probe II) / background (unweighted spectral count, no-probe control): type n_48_v, 48 hpi; for target (unweighted spectral count, OC43 Probe II): OC43 Probe II capture on infected cells; for background (unweighted spectral count, no-probe control): no-probe control on infected cells; for target (unweighted spectral count, OC43 Probe II capture): FDR<10%
SARS-CoV-2 gRNA = settings: for target (unweighted spectral count in RNP capture): Probe I capture, LC-MS/MS LFQ; for background (unweighted spectral count in control): no-probe control pull-down, used as background for Probe I; for target (unweighted spectral count of the protein in the RNP capture): LC-MS/MS, Probe I sample (first 199 lines of Table 2)
gRNA of HCoV-OC43 = settings: for target (spectral count) / background (spectral count): type g_36_m, 36 hpi, Probe I; for target (spectral count): HCoV-OC43-infected HCT-8 cells; for background (spectral count): uninfected-probe control; for target (spectral count, OC43 Probe I RNP capture) / background (spectral count, no-probe control): type n_48_v: 48 hours post-infection; for target (spectral count, OC43 Probe I RNP capture): infected cells, unweighted spectral count; for background (spectral count, no-probe control): no-probe control on infected cells
[1] = test system: SARS-CoV-2 gRNA and sgRNAs; settings: for background (unweighted spectral count in control): no-probe control pull-down, used as background for Probe II; for target (unweighted spectral count in RNP capture): Probe II capture, LC-MS/MS LFQ

Molecule	target (unweighted spectral count) (HCoV-OC43 gRNA and sgRNA; 24 hpi (type n_24_v))	target (unweighted spectral count, OC43 Probe II) (HCoV-OC43 gRNA and sgRNA)	background (unweighted spectral count, no-probe control) (HCoV-OC43 gRNA and sgRNA)	target (spectral count, OC43 Probe I RNP capture) (gRNA of HCoV-OC43)	background (spectral count, no-probe control) (gRNA of HCoV-OC43)	target (unweighted spectral count of the protein in the RNP capture) (SARS-CoV-2 gRNA)	background (unweighted spectral count in control) [1]	also measured
B1	8	11	1	11	1			target (unweighted spectral count) (HCoV-OC43 gRNA and sgRNA; 12 hpi (type n_12_v)): 4; target (unweighted spectral count in RNP capture) (SARS-CoV-2 gRNA): 5; background (unweighted spectral count in control) (SARS-CoV-2 gRNA): 1; target (spectral count) (gRNA of HCoV-OC43): 13; background (spectral count) (gRNA of HCoV-OC43): 2
B2	24	76	4	63	4	32		target (unweighted spectral count, OC43 Probe II capture) (HCoV-OC43 gRNA and sgRNA; 36 hpi, type n_36_v): 52; target (unweighted spectral count) (HCoV-OC43 gRNA and sgRNA; 12 hpi (type n_12_v)): 13
B3						25	1	enrichment in SARS-CoV-2 Probe I RNP capture (SARS-CoV-2 gRNA): enriched; enrichment in SARS-CoV-2 Probe II RNP capture [1]: enriched
B4						8	1	target (unweighted spectral count in RNP capture) ([1]; […]): 27
B5		12	2					target (unweighted spectral count, OC43 Probe II capture) (HCoV-OC43 gRNA and sgRNA; 24 hpi, type n_24_v): 4; target (unweighted spectral count, OC43 Probe II capture) (HCoV-OC43 gRNA and sgRNA; 36 hpi, type n_36_v): 10; target (unweighted spectral count in RNP capture) (SARS-CoV-2 gRNA): 5; background (unweighted spectral count in control) (SARS-CoV-2 gRNA): 1; target (spectral count) (gRNA of HCoV-OC43): 8; background (spectral count) (gRNA of HCoV-OC43): 1
B6	17	36	2	26	2	37		
B7						12		target (unweighted spectral count of the protein in the RNP capture experiment) ([1]; […], LC-MS/MS label-free quantification, probe pool not given): 11; back-ground (unweighted spectral count of the protein in the control experiment) ([1]; protein background of the control (e.g. no-probe) experiment, […]): 2
B8						11	1	target (unweighted spectral count in RNP capture) ([1]; […]): 15
